{
  "source": "patent US12564623B2",
  "about": "“Methods and compositions for treating cancer” (The University of Chicago, priority 2017, dated 2026)",
  "key": {"ELANE [1]": {"system": "ELANE", "conditions": "specific ELANE inhibitors; cited from earlier work"}, "MDA-MB-231 cells [2]": {"system": "MDA-MB-231 cells", "experiment": "ELANE inactivation by PMSF or A1AT and killing assay", "format": "cell-based, human", "conditions": "irreversible non-competitive ELANE inhibitors", "procedure": "(FIG. 5A) Purified native ELANE or PMN media was treated with PMSF (100 nM) or alpha-1-anti-trypsin (A1AT; 42 nM) for 30 mins and loss of ELANE catalytic activity was confirmed by a chromogenic substrate assay. Killing assays were performed by treating MDA-MB-231 cells for 24 hrs treatment and assessed by Calcein AM staining. (FIG. 5B) ELANE activity in PMN media was measured by a chromogenic substrate activity assay, and PMN killing was measured by Calcein AM staining on MDA-MB-231 cells exposed to PMN media for 4h."}, "[3]": {"system": "E0771, B16F10, or LLC1 cancer cells", "experiment": "Tumor growth after intratumoral delivery, syngeneic models", "format": "in vivo, C57BL/6 mice", "conditions": "11.6 μg intratumorally once/day for 5 days", "procedure": "ELANE activity is required for its anti-tumor function in vivo. (FIG. 14A) Catalytic activity of ELANE or ELANE that had been inactivated by treatment with 100 nM PMSF (PMSF-ELANE) was determined by a chromogenic substrate. (FIG. 14B) E0771, B16F10, or LLC1 cancer cells were injected into C57BL/6 mice. Once tumors reached ˜100 mm^3, human serum albumin (HSA, 11.6 μg), ELANE (11.6 μg), or PMSF-ELANE (11.6 μg) were delivered intratumorally once/day for 5 days. Tumor volume was assessed by calipers."}, "MDA-MB-231 cells [4]": {"system": "MDA-MB-231 cells", "experiment": "Cancer cell killing, Calcein AM staining", "format": "cell-based, human", "conditions": "increasing doses, 5h", "procedure": "Approach to identify the factor(s) mediating selective killing. A quantitative cancer cell killing assay was developed to track the bioactive factor(s). MDA-MB-231 cells were treated with various doses of PMN media and cell viability was assessed by Calcein AM live cells fluorescence staining. […] (FIG. 3B) PMN media was passed through a 0.22 μm filter, and protein concentration and killing activity on MDA-MB-231 cancer cells was measured in both pre- and post-filter solutions. […] ELANE and ECP levels in PMN media pre- and post-filtration were quantified by mass spectrometry (spectral counts).\nTo determine if ELANE and/or ECP were responsible, the inventors (1) immuno-depleted ELANE or ECP from PMN media; (2) treated cancer or normal cells with purified native ELANE or ECP from commercial sources. (FIG. 6A) ELANE or ECP were depleted from PMN media by immunoprecipitation; depletion was confirmed by western blotting. PMN media pre-depletion=Orig. and post-depletion=FT. Non-specific IgG was used as a control. (FIG. 6B) MDA-MB-231 cells or human monocyte-derived macrophages (HMDMs) were treated with purified native ELANE or ECP at various doses for 24h, and killing was assessed by Calcein AM staining. (FIG. 6C) MDA-MB-231 cells and HMDMs were treated with levels of ELANE (0.25 μg/mL) or ECP (0.05 μg/mL) that were present in the PMN media, alone or in combination for 24 hrs, and killing was examined by Calcein AM staining.\nHigh doses of ECP or ELANE can kill cancer cells. The inventors sought to determine whether adding purified human ECP (Lee Biosolutions), human ELANE (Abcam), human DEFA1 (Abcam), human ANXA6 (R&D Systems) or human CASP3 (Abcam) individually could kill cancer cells without killing non-cancer cells. Increasing doses of each protein were added to MDA-MB-231 cells for 5h or human monocyte-derived macrophages (HMDMs) for 24 h and cell viability was determined by Calcein-AM.\nELANE and ECP synergize to selectively kill cancer cells. MDA-MB-231 and human monocyte-derived macrophages (HMDMs) were treated with levels of ELANE (0.25 μg/mL) or ECP (0.05 μg/mL) that were present in the PMN media, alone or in combination for 24 hrs. killing was examined by Calcein AM staining.\nCombining chemotherapeutics and neutrophil conditioned media enhances the killing of human triple negative breast cancer cells. MDA-MB-231 cells were treated with neutrophil conditioned media (Neu-CM; 4 μg/mL), doxorubicin (DOX; 0.3 μM), or paclitaxel (PTX; 3 nM) for 4h, individually or in combination, and cell viability was assessed by Calcein-AM.\nOther serine proteases cleave the C-terminal domain of CD95, and the ability to cleave the C-terminal domain is associated with cancer cell killing. (FIG. 12A) Full length recombinanat CD95 protein was incubated with various serine proteases (human ELANE (80 nM), PR3 (80 nM), CSTG (80 nM), PPE (80 nM), mouse ELANE (80 nM), rat ELANE (500 nM), GZMB (80 nM), or Trypsin (250 nM)), or other types of proteases (CTSC (80 nM); or MMP7 (80 nM), MMP9 (80 nM), CTSD (80 nM) not shown) at 37° C. for 2 hours. Degradation was assessed by SDS-PAGE followed by coomassie blue staining. (FIG. 12B) MDA-MB-231 cancer cells were incubated with various proteases for 24 hrs. Cell viability was assessed by Calcein AM staining.\n(FIG. 13A) MDA-MB-231 cancer cells were treated with various doses of purified native ELANE or purified native porcine pancreatic elastase (PPE) for 6 h, and killing was assessed by Calcein AM staining. (FIG. 13B). Purified native ELANE or purified native PPE was incubated with different concentrations of alpha-1-anti-trypsin (A1AT) for 15 mins. Catalytic activity was measured using a chromogenic substrate assay. Cancer cell killing capability was determined by treating MDA-MB-231 cancer cells with ELANE or PPE in the presence or absence of A1AT for 6h, followed by Calcein AM staining. (FIG. 13C) Catalytic activity was measured using a chromogenic substrate assay. […]"}, "[5]": {"system": "human monocyte-derived macrophages (HMDMs)", "format": "cell-based", "procedure": "Human peripheral blood neutrophils were isolated from healthy donors. Cells were plated in serum-free DMEM and the neutrophil conditioned media (Neu CM) was collected for 24h. […] High doses of ECP or ELANE can kill cancer cells. The inventors sought to determine whether adding purified human ECP (Lee Biosolutions), human ELANE (Abcam), human DEFA1 (Abcam), human ANXA6 (R&D Systems) or human CASP3 (Abcam) individually could kill cancer cells without killing non-cancer cells. Increasing doses of each protein were added to MDA-MB-231 cells for 5h or human monocyte-derived macrophages (HMDMs) for 24 h and cell viability was determined by Calcein-AM. […] ELANE and ECP synergize to selectively kill cancer cells. MDA-MB-231 and human monocyte-derived macrophages (HMDMs) were treated with levels of ELANE (0.25 μg/mL) or ECP (0.05 μg/mL) that were present in the PMN media, alone or in combination for 24 hrs. killing was examined by Calcein AM staining."}, "ELANE [6]": {"biological_target": "T1, ELANE (Homo sapiens, UniProt P08246)", "T1 construct": "incubated the neutrophil conditioned media with magnetic beads coupled to an anti-ELANE antibody; endogenous in cells; host or cells: human peripheral blood neutrophils from healthy donors (conditioned media)", "T1 sequence (P08246 30-267)": "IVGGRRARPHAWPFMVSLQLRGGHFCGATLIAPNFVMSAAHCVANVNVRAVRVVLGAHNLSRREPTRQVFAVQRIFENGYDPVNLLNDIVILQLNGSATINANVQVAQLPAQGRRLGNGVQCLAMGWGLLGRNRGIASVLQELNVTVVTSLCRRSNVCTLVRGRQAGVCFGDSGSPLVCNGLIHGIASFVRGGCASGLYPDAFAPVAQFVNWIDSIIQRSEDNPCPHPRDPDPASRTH", "experiment": "ELANE catalytic activity with increasing ECP, chromogenic substrate activity assay", "format": "biochemical", "conditions": "ECP as type 2 allosteric activator", "procedure": "(§1) FIG. 7A-D. ECP is a type II allosteric activator of ELANE catalytic activity. (a) 10 nM ELANE was incubated with increasing ECP concentrations at various substrate concentrations. Catalytic activity was measured by a chromogenic substrate activity assay. (b) Km (app) and Vmax (app) values were obtained by fitting curves to Michaelis-Menten equations (lines). (c) Km (app) versus ECP concentration. (d) Vmax (app) versus ECP concentration. ELANE was immunoprecipitated from human PMN media and samples were probed with anti-ELANE and anti-ECP antibodies. Orig=PMN media, Sup=flow-though, Wash=bead wash, Elute=bound to anti-ELANE antibody.\nas §1, with “ECP” for “FIG. 7A-D. ECP”, “(FIG. 7A)” for “(a)”, “(FIG. 7B)” for “(b)”, “(FIG. 7C)” for “(c)”, “(FIG. 7D)” for “(d)”"}, "ELANE [7]": {"biological_target": "T1, ELANE", "experiment": "Anti-ELANE magnetic bead pull-down from neutrophil conditioned media, western blotting", "format": "binding", "conditions": "anti-ELANE antibody beads", "from_the_text": "Identification of ECP, ELANE, ANXA6, DEFA1, and CASP3 as candidate cancer cell killing proteins in the neutrophil conditioned media. Neutrophil conditioned media was obtained from 2 different donors (Donor 1 and Donor 2). […] To determine the identity of the proteins depleted by the 0.2 μm sterile filter, the inventors performed quantitative proteomics analysis on the conditioned media from each donor pre- and post-filter. Proteomics analysis identified 2000 proteins, 4 of which (ECP, ELANE, ANXA6, and DEFA1) were depleted in samples from both donors (G-test, p<0.05). The inventors explored the possibility that these proteins might interact with or complement one another. This hypothesis was tested using two approaches. First, the inventors incubated the neutrophil conditioned media with magnetic beads coupled to an anti-ELANE antibody and analyzed the supernatant (sup), wash, and eluent (elute) by western blotting."}},
  "note": "Ends that are not written are not given here.",
  "data": [
    {"molecule": "elafin (AQEPVKGPVSTKPGSCPIILIRCAMLNPPNRCLKDTDCPGIKKCCEGSCGMACFVPQ; ends and bridges not checked; cysteine pairing not given here; UniProt P19957 61-117, looked up)", "values": [
      {"measurement": "growth of transplanted cancer cells", "setting": "ELANE [1]", "value": "suppress growth of cancer cells transplanted into severe combined immunodeficiency mice"}
    ]},
    {"molecule": "O=S(=O)(F)Cc1ccccc1", "note": "[PMSF]", "values": [
      {"measurement": "effect on cancer cell apoptosis of treating ELANE or neutrophil conditioned media with inhibitor", "setting": "MDA-MB-231 cells [2]", "value": "protects cancer cells from apoptosis"}
    ]},
    {"molecule": "alpha-1-antitrypsin", "values": [
      {"measurement": "effect on cancer cell apoptosis of treating ELANE or neutrophil conditioned media with inhibitor", "setting": "MDA-MB-231 cells [2]", "value": "protects cancer cells from apoptosis"}
    ]},
    {"molecule": "CC(C)(C)C(=O)Oc1ccc(S(=O)(=O)Nc2ccccc2C(=O)NCC(=O)O)cc1", "note": "[sivelestat]", "values": [
      {"measurement": "growth of transplanted cancer cells", "setting": "ELANE [1]", "value": "suppress growth of cancer cells transplanted into severe combined immunodeficiency mice"}
    ]},
    {"molecule": "PMSF-ELANE: ELANE that had been inactivated by treatment with PMSF (protein, UniProt P08246 30-267, looked up, PMSF-inactivated) Neutrophil elastase: IVGGRRARPHAWPFMVSLQLRGGHFCGATLIAPNFVMSAAHCVANVNVRAVRVVLGAHNLSRREPTRQVFAVQRIFENGYDPVNLLNDIVILQLNGSATINANVQVAQLPAQGRRLGNGVQCLAMGWGLLGRNRGIASVLQELNVTVVTSLCRRSNVCTLVRGRQAGVCFGDSGSPLVCNGLIHGIASFVRGGCASGLYPDAFAPVAQFVNWIDSIIQRSEDNPCPHPRDPDPASRTH", "values": [
      {"measurement": "tumor growth", "setting": "[3]", "value": "no effect on tumor growth"}
    ]},
    {"molecule": "eosinophil cationic protein (protein, listed as Homo sapiens) MVPKLFTSQICLLLLLGLMGVEGSLHARPPQFTRAQWFAIQHISLNPPRCTIAMRAINNYRWRCKNQNTFLRTTFANVVNVCGNQSIRCPHNRTLNNCHRSRFRVPLLHCDLINPGAQNISNCTYADRPGRRFYVVACDNRDPRDSPRYPVVPVHLDTTI", "values": [
      {"measurement": "cancer cell killing activity of purified protein", "setting": "MDA-MB-231 cells [4]", "value": "highest cancer cell killing activity"},
      {"measurement": "toxicity to human monocyte-derived macrophages", "setting": "[5]", "value": "showed toxicity"},
      {"measurement": "effect on KM of ELANE", "setting": "ELANE [6]", "value": "without altering KM"},
      {"measurement": "increase of kcat of ELANE for its substrate", "setting": "ELANE [6]", "value": 12, "unit": "fold"},
      {"measurement": "binding to ELANE", "setting": "ELANE [7]", "value": "ELANE-binding proteins"}
    ]}
  ]
}
